This is an account of results in PMC11602133.

Experiment [1] deals with AGAMOUS (AG), in vitro produced (Arabidopsis) (UniProt P17839). The experiment in a line: native gel or EMSA; in vitro produced proteins (wheat germ TnT) mixed with a DY-682 labelled ~100 bp DNA probe containing a CArG-box (SAUR10 probe); protein complexes read from the shifted bands on DNA; anti-FLAG antibody added for supershift where FUL-FLAG was used. (In general: Mobility shift assays separate free from complexed probe on a gel.)

The target of experiment [2] is SUPPRESSOR OF OVEREXPRESSION OF CONSTANS 1 (SOC1), in vitro produced (Arabidopsis) (UniProt O64645). Described as above.

Where “and” joins values, the source holds several entries; their conditions need not be identical. Equal entries are not always repeated.

Chain of UniProt O64645 (O64645 whole entry): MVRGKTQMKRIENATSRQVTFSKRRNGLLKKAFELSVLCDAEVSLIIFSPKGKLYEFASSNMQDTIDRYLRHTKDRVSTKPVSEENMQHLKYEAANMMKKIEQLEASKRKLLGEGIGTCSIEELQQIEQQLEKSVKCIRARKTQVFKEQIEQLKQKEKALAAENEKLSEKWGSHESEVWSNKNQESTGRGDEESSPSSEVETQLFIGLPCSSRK
Chain of AGAMOUS (AG), in vitro produced, P17839 1-252 (natural protein; other documents disagree on this pair) (P17839 whole entry): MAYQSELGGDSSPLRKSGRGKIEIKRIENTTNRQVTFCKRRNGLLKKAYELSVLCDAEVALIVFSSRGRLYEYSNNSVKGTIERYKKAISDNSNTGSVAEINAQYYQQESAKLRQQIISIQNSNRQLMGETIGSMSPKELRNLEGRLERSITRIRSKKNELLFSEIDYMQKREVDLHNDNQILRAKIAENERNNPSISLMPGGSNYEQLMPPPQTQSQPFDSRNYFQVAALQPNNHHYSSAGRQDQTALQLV

What is called stoichiometry N is the number of molecules, sites or subunits per partner or assembly. Consider “AGAMOUS (AG), in vitro produced, P17839 1-252 (natural protein; other documents disagree on this pair)”, for which the stoichiometry N in experiment [1] is 2.

As to “SUPPRESSOR OF OVEREXPRESSION OF CONSTANS 1 (SOC1), in vitro produced (from UniProt O64645 1-214) (natural protein)”, in experiment [2], the stoichiometry N is 2 and 4.
